Abundance fitness data for 95 substances are collected here from the Human Domainome abundance scans (Beltran et al. 2025).

± gives the uncertainty stated by the source.

This data set can be described thus: abundance fitness (aPCA) (normalised: wild type 0, dead -1); higher = more abundant; growth selection in yeast, the domain comes from the species named. To be noted: Homo sapiens.
“Transcriptional activator Myb G163K, P10242” came in with an abundance fitness of -0.405 ± 0.11.
For the substance “Transcriptional activator Myb G163L, P10242”, the abundance fitness is -0.581 ± 0.082.
In the case of “Transcriptional activator Myb G163M, P10242”, the abundance fitness is -0.484 ± 0.12.
“Transcriptional activator Myb G163P, P10242” displayed an abundance fitness of -0.19 ± 0.1.
The substance “Transcriptional activator Myb G163R, P10242” gave an abundance fitness of -0.422 ± 0.059.
Regarding “Transcriptional activator Myb G163S, P10242”, the abundance fitness was -0.406 ± 0.078.
Take “Transcriptional activator Myb G163T, P10242”: the abundance fitness was -0.595 ± 0.11.
As for “Transcriptional activator Myb G163V, P10242”, the abundance fitness is -0.537 ± 0.084.
As to “Transcriptional activator Myb G163W, P10242”, the abundance fitness was -0.602 ± 0.084.
“Transcriptional activator Myb G163Y, P10242” showed an abundance fitness of -0.577 ± 0.46.
Regarding “Transcriptional activator Myb G175A, P10242”, the abundance fitness was -0.085 ± 0.058.
Under “Transcriptional activator Myb G175C, P10242” stands -0.171 ± 0.1.
The substance “Transcriptional activator Myb G175D, P10242” gave an abundance fitness of 0.021 ± 0.079.
Under “Transcriptional activator Myb G175E, P10242” stands 0.023 ± 0.079.
As for “Transcriptional activator Myb G175F, P10242”, the abundance fitness is -0.308 ± 0.12.
Under “Transcriptional activator Myb G175H, P10242” stands 0.101 ± 0.17; under “Transcriptional activator Myb G175I, P10242”, -0.961 ± 0.35; under “Transcriptional activator Myb G175K, P10242”, -0.036 ± 0.095.
As to “Transcriptional activator Myb G175L, P10242”, the abundance fitness is -0.102 ± 0.077.
In turn, “Transcriptional activator Myb G175M, P10242” came in with an abundance fitness of -0.283 ± 0.098.
“Transcriptional activator Myb G175N, P10242” displayed an abundance fitness of -0.197 ± 0.18.
With “Transcriptional activator Myb G175P, P10242”, the abundance fitness is -0.594 ± 0.11.
Under “Transcriptional activator Myb G175Q, P10242” stands -0.315 ± 0.12; under “Transcriptional activator Myb G175R, P10242”, -0.281 ± 0.053.
“Transcriptional activator Myb G175S, P10242” registered an abundance fitness of -0.13 ± 0.074.
“Transcriptional activator Myb G175V, P10242” returned an abundance fitness of -0.409 ± 0.066.
“Transcriptional activator Myb G175W, P10242” displayed an abundance fitness of -0.168 ± 0.077.
The substance “Transcriptional activator Myb G175Y, P10242” gave an abundance fitness of -0.256 ± 0.14.
In the case of “Transcriptional activator Myb G197C, P10242” it was 0.032 ± 0.098; in that of “Transcriptional activator Myb G197D, P10242”, -0.09 ± 0.13; in that of “Transcriptional activator Myb G197F, P10242”, -0.148 ± 0.39.
In turn, “Transcriptional activator Myb G197H, P10242” showed an abundance fitness of -0.395 ± 0.21.
Substance “Transcriptional activator Myb G197I, P10242” displayed an abundance fitness of -0.717 ± 0.24.
As for “Transcriptional activator Myb G197K, P10242”, the abundance fitness is -0.124 ± 0.12.
Turning to “Transcriptional activator Myb G197L, P10242”, the abundance fitness is -0.34 ± 0.083.
In turn, “Transcriptional activator Myb G197M, P10242” returned an abundance fitness of -0.334 ± 0.12.
The substance “Transcriptional activator Myb G197N, P10242” displayed an abundance fitness of 0.083 ± 0.16.
Under “Transcriptional activator Myb G197P, P10242” stands -0.13 ± 0.1; under “Transcriptional activator Myb G197R, P10242”, -0.087 ± 0.06; under “Transcriptional activator Myb G197S, P10242”, 0.01 ± 0.071.
In the case of “Transcriptional activator Myb G197T, P10242” it was -0.15 ± 0.092; in that of “Transcriptional activator Myb G197W, P10242”, -0.229 ± 0.086.
Take “Transcriptional activator Myb G197Y, P10242”: the abundance fitness is -0.265 ± 0.14.
In turn, “Transcriptional activator Myb H159R, P10242” showed an abundance fitness of -0.243 ± 0.18.
Take “Transcriptional activator Myb H159Y, P10242”: the abundance fitness was -0.007 ± 0.12.
The substance “Transcriptional activator Myb H184A, P10242” registered an abundance fitness of -0.732 ± 0.07.
“Transcriptional activator Myb H184C, P10242” had an abundance fitness of -0.799 ± 0.084.
For “Transcriptional activator Myb H184D, P10242”, the abundance fitness was -0.82 ± 0.077.
In the case of “Transcriptional activator Myb H184E, P10242” it was -0.783 ± 0.1; in that of “Transcriptional activator Myb H184F, P10242”, -0.488 ± 0.075.
In the case of “Transcriptional activator Myb H184G, P10242” it was -0.855 ± 0.054; in that of “Transcriptional activator Myb H184L, P10242”, -0.623 ± 0.052; in that of “Transcriptional activator Myb H184M, P10242”, -0.623 ± 0.061.
Take “Transcriptional activator Myb H184N, P10242”: the abundance fitness is -0.817 ± 0.067.
On to “Transcriptional activator Myb H184P, P10242”, for which the abundance fitness was -0.81 ± 0.098.
Take “Transcriptional activator Myb H184Q, P10242”: the abundance fitness is -0.598 ± 0.08.
“Transcriptional activator Myb H184R, P10242” showed an abundance fitness of -0.055 ± 0.062.
With “Transcriptional activator Myb H184S, P10242”, the abundance fitness was -0.854 ± 0.067.
“Transcriptional activator Myb H184T, P10242” registered an abundance fitness of -1.07 ± 0.095.
As for “Transcriptional activator Myb H184V, P10242”, the abundance fitness was -0.684 ± 0.048.
The substance “Transcriptional activator Myb H184W, P10242” gave an abundance fitness of -0.298 ± 0.073.
In turn, “Transcriptional activator Myb H184Y, P10242” had an abundance fitness of -0.001 ± 0.052.
The substance “Transcriptional activator Myb I154A, P10242” came in with an abundance fitness of -0.215 ± 0.054.
Under “Transcriptional activator Myb I154C, P10242” stands -0.328 ± 0.093; under “Transcriptional activator Myb I154D, P10242”, -0.5 ± 0.12; under “Transcriptional activator Myb I154E, P10242”, -0.5 ± 0.076.
“Transcriptional activator Myb I154F, P10242” registered an abundance fitness of -0.914 ± 0.13.
As for “Transcriptional activator Myb I154G, P10242”, the abundance fitness was -0.777 ± 0.057.
Substance “Transcriptional activator Myb I154H, P10242” returned an abundance fitness of -0.59 ± 0.12.
Under “Transcriptional activator Myb I154K, P10242” stands 0.008 ± 0.095; under “Transcriptional activator Myb I154L, P10242”, -0.187 ± 0.055.
The substance “Transcriptional activator Myb I154M, P10242” had an abundance fitness of -0.296 ± 0.085.
For “Transcriptional activator Myb I154N, P10242”, the abundance fitness was -1.14 ± 0.3.
For “Transcriptional activator Myb I154P, P10242”, the abundance fitness was -0.807 ± 0.12.
“Transcriptional activator Myb I154Q, P10242” came in with an abundance fitness of -0.216 ± 0.11.
Turning to “Transcriptional activator Myb I154R, P10242”, the abundance fitness was -0.23 ± 0.046.
“Transcriptional activator Myb I154S, P10242” returned an abundance fitness of -0.527 ± 0.062.
Under “Transcriptional activator Myb I154T, P10242” stands -0.185 ± 0.077; under “Transcriptional activator Myb I154V, P10242”, -0.03 ± 0.05; under “Transcriptional activator Myb I154Y, P10242”, -0.65 ± 0.13.
As for “Transcriptional activator Myb I155A, P10242”, the abundance fitness is -0.503 ± 0.065.
The substance “Transcriptional activator Myb I155C, P10242” came in with an abundance fitness of -0.346 ± 0.095.
In the case of “Transcriptional activator Myb I155D, P10242” it was -0.779 ± 0.15.
In the case of “Transcriptional activator Myb I155E, P10242” it was -0.521 ± 0.092.
Under “Transcriptional activator Myb I155F, P10242” stands -0.467 ± 0.14.
Regarding “Transcriptional activator Myb I155G, P10242”, the abundance fitness is -0.894 ± 0.064.
In the case of “Transcriptional activator Myb I155H, P10242” it was -1.04 ± 0.21; in that of “Transcriptional activator Myb I155K, P10242”, -0.736 ± 0.11.
Take “Transcriptional activator Myb I155L, P10242”: the abundance fitness was -0.068 ± 0.069.
Under “Transcriptional activator Myb I155M, P10242” stands -0.178 ± 0.12.
In the case of “Transcriptional activator Myb I155N, P10242” it was -0.645 ± 0.17.
On to “Transcriptional activator Myb I155P, P10242”, for which the abundance fitness is -0.945 ± 0.14.
On to “Transcriptional activator Myb I155Q, P10242”, for which the abundance fitness was -0.786 ± 0.13.
In the case of “Transcriptional activator Myb I155R, P10242” it was -0.935 ± 0.067; in that of “Transcriptional activator Myb I155S, P10242”, -0.916 ± 0.13.
